In the nanobody polyreactivity screen of Harvey et al. (2022):

Assay: yeast display, Sf9 membrane polyspecificity reagent, FACS + sequencing; frameworks hold sequencing errors
How it was run: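 Polyreactivity labels are assigned by the sorting gate from which each nanobody was recovered. The gates were low and high (top ~1%), set on anti-HA fluorescence for expression and streptavidin fluorescence for reagent binding. Before sorting, galactose-induced (36–48 hours) yeast display cells were stained for 1 hour at 4 °C with 10% biotinylated, detergent-solubilized Sf9 membrane reagent.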

| Sequence | polyreactivity (PSR sort gate) |
| --- | --- |
| QVQLVESGGGLVQAGGCLRLSCAASGLIFIKYTMGWYRQAPGKERELVAVISGSGGSTYYADSVKGRFTISRDNAKNTVYLQMNSLKPEDTAVYYCAARSYALGYGGGYWGQGTQVTVSS | high polyreactivity |
| QVQLVESGGGLVQAGGCLRLSCAASGRTFYRNVMGWYRQAPGKEREWVGAISSRGGSTYYADSVKGRFTISRDNAKNTVYLQMNSLKPEDTAVYYCAAEGTYYGSDYWGQGTQVTVSS | high polyreactivity |
| QVQLVESGGGLVQAGGCLRLSCAASGSTFPRNAMGWYRQAPGKERELVATITSSGGGTYYADSVKGRFTISRDNAKNTVYLQMNILKPEDTAVYYCNADGPAGDAFDYCGQGTQVTVSS | low polyreactivity |
| QVQLVESGGGLVQAGGCLRLSCAASGSTFRYYAMGWYRQAPGKERELVAAIYGGGTTYYADSVKGRFTISRDNAKNTVYLQLNSLKPEDTAVYYCAASILFSYYGRDDYWGQGTQVTVSS | low polyreactivity |
| QVQLVESGGGLVQAGGCLRLSCAASGSTFYVYDMGWYRQAPGKERELVAAMSKRRGTTYYADSVKGRFTISRDNAKNTVYLQMNSLKPEDTAVYYCAAVFRSPSAGYQGGYWGQGSQVTVSS | high polyreactivity |
| QVQLVESGGGLVQAGGFLRLSCASSGSTFIYYAMGWYREAPGKERELVAAISWSGGRTYYADAVKGRFTISRDNAKNTVYLQMTSLKPEDTAVDYCAAESYYSDGYPGVDYWGQATQVTVSS | high polyreactivity |
| QVQLVESGGGLVQAGGGRRGSGAAAGSIFAWYAMGWYRQAPGTERELVATITWSGGSTYYADSVKGRFTISRDIAKNTVYLQMNSLKREDTAVYYCAAEVVGIWYDLWYQGDYWGQGTQVTVSS | low polyreactivity |
| QVQLVESGGGLVQAGGILRISCAASGRTFASNAMGWYRRAPGKERELVAAMSSSGGRTYYADSVKGRITISRDNAKNTVYLQMNSLKPEYTPVFYCAKVGPVYKYDYWGQGTQVTVSS | high polyreactivity |
| QVQLVESGGGLVQAGGILRLICAASGITFVSYGMVWYRQAPRKERELVAAITRSGGSTYYADSVKGRFTISRDNAKNTVYLQMNSLKPDDTAVYYCNARTRYASKGGGARWDSYGYWGQGTQVTVSS | high polyreactivity |
| QVQLVESGGGLVQAGGILRLICAASGRTFRYNAMGWYIQAPGKERELVASINSRGDSTYYADSVKGRFTISRDNAKNTVYLQMNSLKPEDTAVYYCNKRIGVGAYYVRYGYWGQGTQVTVSS | high polyreactivity |
| QVQLVESGGGLVQAGGILRLICDASGFIIGYYAMGWYRQAPGKERELVAAISKSGGRTRYADSVKGRFTISRDNAKNTVYLQMNSLKPEDTAVYYCATYDPARSTQGYDYWGQGTQVTVSS | high polyreactivity |
| QVQLVESGGGLVQAGGILRLSAASGSTLAGNTMGWYRQAPGKERELVAAINDSGGSTYYADSVKGRFTISRDNAKNTVYLQMNSLKPEDTAVYYCNADGSAYIEDGYDYWGQGTQVTVSS | low polyreactivity |
| QVQLVESGGGLVQAGGILRLSCAAAGGTLYYYMGWYRQAPGKESEFVAAINIRGDSTYYADSVKGRFTISRDNAKNTVYLQMNSLKPEDTAVYYCAADLPRRSAHYYYWGQGTLVTVSS | low polyreactivity |
| QVQLVESGGGLVQAGGILRLSCAASGFIFAYYAMGWYRQAPGKERELVAAITRRGGSTSYADSVKGRFTISRDNAKNTVYLQMNSLKPEDTAVYYCNAVSKYDYGYWGQGTQVTVSS | high polyreactivity |
| QVQLVESGGGLVQAGGILRLSCAASGFIFRRYAMGWYRQEPGKERELVAAINYSGGSTYYADSVKGRFTISRDNAKNTVYLKMNSLKPEDTAVYYCAAGSRRGIDPGSDYWGQGNQVTVSS | low polyreactivity |
| QVQLVESGGGLVQAGGILRLSCAASGFIFVRYAMGWYRQAPGKERELVAAISWRGGSTYYADSVKGRFTISRDNAKNTVYLQMNSLKPEDTAVFYCSAVTWVHRYSRFHPFVAFDYWGQGTQVTVSS | high polyreactivity |
| QVQLVESGGGLVQAGGILRLSCAASGFTFTRNAKGRYRQAPGKERELVAAISSGGRTYYADSVKGRFTISRDNAKNTVYLQMNSLKPEDTAVYYCPTTIWGPVEGYDYWGQGTQETVSS | high polyreactivity |
| QVQLVESGGGLVQAGGILRLSCAASGIIFYYYAMGWYRQAPGKEMELVAGIRARGGITYYADSVKGRFTISRDNAKNTVYLLMNSLKPVDTAVYYCAKSTRPVSGVPDGPLYEYWGQGTQVTVSS | low polyreactivity |
| QVQLVESGGGLVQAGGILRLSCAASGLIFKYNAMGWYRQAPGKERELVAAISTSGGSTYYADSVKGRFTISRDNAKNTVYLQMNSLKPEDTAVYYCNVAYIKTRLFRPYDYWGQGTQVTVSS | high polyreactivity |
| QVQLVESGGGLVQAGGILRLSCAASGLTFAKYAMGWYRQAPGKERELVAAITKSSGSTYYADSVKGRFTISRDNAKNTVYFQMNSLKPEDTAVYYCAAGIYAFRRHREEYHYWGQGTQVTVSS | high polyreactivity |
| QVQLVESGGGLVQAGGILRLSCAASGLTFYYYSMGWYRQAPGKERELVAAINSSGGITFYADSVKGRFTISRDNAKNTVYLQMNSLKPEDTAVYYCAAGGRSKRYGYWGQGTQVTVSS | low polyreactivity |
| QVQLVESGGGLVQAGGILRLSCAASGNAMGWYRQAPGKERELVATINRSGGRTYYADSVKGRFTISRDNAKNTVYLQMNSLKPEDTAVYYCATEGRWPNASYGDYDYWGQGTQVSVSS | low polyreactivity |

| Sequence | polyreactivity (PSR sort gate) |
| --- | --- |
| QVQLVESGGGLVQAGGILRLSCAASGNIFDRYAMGWYSQAPGKERELVAGMTWSGGSTYYADSVKWRFTISRDNAKNTVYLQMNSLKPEDTAVYYCGQANYYWGQGTQVTVSS | low polyreactivity |
| QVQLVESGGGLVQAGGILRLSCAASGRIFRYNAMGWSRQAPGKERELVAAISSSGSSTYYADSVKGRFTISRDNAKNTVYLQMNSLKPADTAVYYCNARIPSRYYYQYDYWGQGTQVTVSS | high polyreactivity |
| QVQLVESGGGLVQAGGILRLSCAASGRIFSRYVMGWYRQAPGKEREFVASITWSGSSTYYADSVKGRFTISRDNAKNTVYLQMNSLKPEDTAVYYCAALGLLSPSPWGTHISEYDSWGQGTQVTVSS | low polyreactivity |
| QVQLVESGGGLVQAGGILRLSCAASGRNFVHYAMGWYRQAPGKERELVAAISHSGGRTYYADSVKGRFTMSRDYAQNTVYLQMNSLKPEDTAVYYCNVRGSPAGTGLLDYWGQGTQVTVSS | high polyreactivity |
| QVQLVESGGGLVQAGGILRLSCAASGRTFKYYAMGWYRQAPGKERELVATITWSGTSTNFADSVKGRFTISRDNAKNTVYLQMNSLKPEDTAVYYCAARSKRRNYDYWGQGTQVTVSS | high polyreactivity |
| QVQLVESGGGLVQAGGILRLSCAASGRTFNSNAMGWYRQAPGKERELVAAITGGGGRTYYADSVKGRFTISRDNAKNTVYLQMNSVKPEDTAVYYCYAARWYRGYDYWGQVTQVTVSS | high polyreactivity |
| QVQLVESGGGLVQAGGILRLSCAASGRTFQGNAMGWSRQAPGKERELVAVIDSGTSTDYADSVKGRFTISRDNAKNTVYLQMNSLKPEDTAVYYCAADGALGYNLRYDYWGQGTQVTVSS | low polyreactivity |
| QVQLVESGGGLVQAGGILRLSCAASGRTFSWNAMGWYRQAPGKERELVAAISNSGGSTYYADSVKGRFTISRDNAKNTVFLQMNSLKPEDTAVYYCAVYRYYGFSLWYDYWGQGTQVTVSS | low polyreactivity |
| QVQLVESGGGLVQAGGILRLSCAASGSIFDVYAMGWYRQAPGKERELVAAINRGGSTNYADSVKGRFTISRDNAKNTVYLQMNCLKPEDTAVYYCAADIVWYVYNGYYWIFDYWGQGTQVTVSS | high polyreactivity |
| QVQLVESGGGLVQAGGILRLSCAASGSIFEWYAMGWYRQAPGKEREFVAAINSGGSTYYADSVKGRFTISRDNAKNTVYLQMNSLKPEDTAVYYCNKVSYGYSTYGYWGQGTQVTVSS | low polyreactivity |
| QVQLVESGGGLVQAGGILRLSCAASGSIFNGYAMGWYRQSPGKERELVAAISWNGGSTYYADSVKGRFTISRDNAKNTFYLLMNSLKPEDTAVYYFAAGGYYDSRTYYYWGQGTQVSVSS | high polyreactivity |
| QVQLVESGGGLVQAGGILRLSCAASGSIFPFNAMGWYRQAPGKERDLVAAITRSGGSTYYADSVKGRFTISRDNAKNTVYLQMNSLKPEDTSVYYCATDPEWPLPAYYYWGQGTQVTVSS | low polyreactivity |
| QVQLVESGGGLVQAGGILRLSCAASGSIFRQYARGWYRQAPGKERAFVAAITRRGGSTRYADSVKGRFTISRDNAKNTVYLQMNSLKPEDSAVEYCAARGVPGLHRYYYWGQGTQVTVSS | high polyreactivity |
| QVQLVESGGGLVQAGGILRLSCAASGSIFSQYAMGWYRQAPGKERELVATISWNGGRTYYADSVKGRFTISRDNAKNTVYLELNSLKPEDTAVYYCAARYGGVPYYYWGQGTQVTVSS | high polyreactivity |
| QVQLVESGGGLVQAGGILRLSCAASGSIFYWSTMGWYIQAPGKERELVAAISSIDGNTYYADSVKGRFTISRDNAKNTVYLQMNSLKPEDTAVYYCAAAYYNTDYYYWGQGTQVTVSS | low polyreactivity |
| QVQLVESGGGLVQAGGILRLSCAASGSTFAANAMGWYRQAPGKERELVAAITSSGGSTYYADSVKGRFTISRDNAKNTVYLQMNSLKPEDTAVYYCNKDIERYVRIYYSWGQGTQVTVSS | low polyreactivity |
| QVQLVESGGGLVQAGGILRLSCAASGSTFAQNAMGWYRQAPGKEREFVAAITGTVGSTYYADSVKGRFTISRDNAKNTVYLQMNSLKPEDTAVFYCNTRGFNGRVYPYDYWGQGTQVTVSS | low polyreactivity |
| QVQLVESGGGLVQAGGILRLSCAASGSTFDINTMGWYRQAPGKEREFVAAITDSDDSTYYADSVKGRFTISRDHAKNTVYLLMNSLKPEDTAVDYCNYDYWGQGTQVTVAS | low polyreactivity |
| QVQLVESGGGLVQAGGILRLSCAASGSTFPFYAMGWYRQAPGKVRELVASINSDGSTNYADSVKGRFTISRDNAKNTVYLQMNSLKPEDTAVYYCAAGWQTRFYSRYYYWGQGTQVTVSS | high polyreactivity |
| QVQLVESGGGLVQAGGILRLSCAASGSTFYENAMGWYRQAPGKERELVAAITWSGGRTYYADSVKGRFTISRDNAKNTVYLQMNSLKPEDTAVYYCNARARSRKFYYWGQVTQVTVSS | high polyreactivity |
| QVQLVESGGGLVQAGGILRLSCAASGYIFGPNAMGCYRQAPGKERELVAGITWSTGNTYYAVSVKGRFTISRDNAKNTVYLHMNSLKPEDTAVYYCAADFYVAYEGVQPYWMDYWGQGTQVNVSS | low polyreactivity |
